Source: patent US20260191907A1 (INSTITUT CURIE, published 2026)
Blank lines part the entries; values can stand above or below the binder they belong to.

Legend:
[1] = target: T1, Recombinant FGFR4 (G&P Biosciences) (human, UniProt P22455 22-369); experiment: SPR (BIAcore T200), single cycle kinetics, FGFR4 amine-immobilised, nanobody as analyte, heterogeneous ligand model, component 2 (koff2)
T1 construct: Bought protein; the SPR method says only 'Recombinant; also called rFGFR4; extracellular FGFR4
T1 sequence: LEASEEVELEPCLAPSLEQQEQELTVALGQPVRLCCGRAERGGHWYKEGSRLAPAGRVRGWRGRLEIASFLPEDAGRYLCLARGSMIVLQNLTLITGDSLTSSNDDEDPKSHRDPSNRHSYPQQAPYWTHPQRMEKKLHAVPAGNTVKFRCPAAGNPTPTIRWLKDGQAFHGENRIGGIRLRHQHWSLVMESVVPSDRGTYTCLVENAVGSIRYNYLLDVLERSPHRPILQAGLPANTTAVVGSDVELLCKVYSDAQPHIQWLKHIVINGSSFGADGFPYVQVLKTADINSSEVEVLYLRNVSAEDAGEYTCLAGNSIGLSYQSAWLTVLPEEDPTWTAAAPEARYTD
Protocol: (§1) FIG. 3: Affinity determination of nanobodies to recombinant protein via surface plasmon resonance spectroscopy. Single cycle kinetics analysis was performed on immobilized FGFR4 through covalent amine binding on the dextran based sensor chip. The analytes A8, B1, B5, F8 and mCh were injected in 5 different concentrations followed by a dissociation phase. A final dissociation step was added after the last injection step to determine Koff rates for the KD calculations. The black curves represent the measured data and red curves show the fit analysis (heterogeneous ligand model) performed with the BIAevaluation software.
Single cycle kinetics analysis was performed with the BIAcore® T200 instrument (GE Healthcare) on CMD200M sensor chips (XanTec bioanalytics GmbH) activated with a mixture of 300 mM NHS (N-hydroxysuccinimide) and 50 mM EDC (N-ethyl-N′-(dimethylaminopropyl) carbodiimide). Recombinant FGFR1, FGFR2, FGFR3 and FGFR4 (G&P Biosciences) were immobilized on the activated biosensors (800 to 12′000 RU; 1 RU=1 pg/mm²) followed by a blocking step with 1M ethanolamine. One flow channel per chip was used as a reference to provide background corrections. The nanobodies were injected at 5 different concentrations followed by a dissociation phase. Koff-rates were determined from a final dissociation step after the last injection. The measurements with FGFR4 were performed for each nanobody on freshly immobilized protein due to strong binding and incomplete dissociation from the surface. Immobilization flow rate was 5 μl/min and binding studies were performed at 30 μl/min. Binding parameters were determined with the heterogeneous ligand model fit of the BIAevaluation software. The black curves represent the measured data and red curves show the performed fit analysis.
To determine the binding affinity of the nanobodies to FGFR4, we performed surface plasmon resonance (SPR) spectroscopy with recombinant FGFR4. As already mentioned above, FGFR1 and FGFR2 are expressed on Rh4-FR4ko cells and flow cytometry analysis indicated no binding of the nanobodies to the cells. […]

[2] = target: T1, Recombinant FGFR4 (G&P Biosciences); experiment: SPR (BIAcore T200), single cycle kinetics, FGFR4 amine-immobilised, nanobody as analyte, heterogeneous ligand model, component 2 (koff2); heterogeneous ligand model, component 2 (koff2)
Protocol: as §1
Single cycle kinetics analysis was performed with the BIAcore® T200 instrument (GE Healthcare) on CMD200M sensor chips (XanTec bioanalytics GmbH) activated with a mixture of 300 mM NHS (N-hydroxysuccinimide) and 50 mM EDC (N-ethyl-N′-(dimethylaminopropyl) carbodiimide). Recombinant FGFR1, FGFR2, FGFR3 and FGFR4 (G&P Biosciences) were immobilized on the activated biosensors (800 to 12′000 RU; 1 RU=1 pg/mm²) followed by a blocking step with 1M ethanolamine. […] Koff-rates were determined from a final dissociation step after the last injection. […] Binding parameters were determined with the heterogeneous ligand model fit of the BIAevaluation software. The black curves represent the measured data and red curves show the performed fit analysis. […]

[3] = target: T2, FGFR2 expressed on Rh4-FR4ko cells (UniProt P21802 22-821, limits assumed); experiment: flow cytometry on Rh4-FR4ko cells, which express FGFR1 and FGFR2
T2 construct: whole, on cells; also called FGFR2 on Rh4 cells
Protocol: The cells were incubated for 1 h with nanobodies at 10 μM (A8, B1, B5, F8, mCh) followed by stimulation of FGFR4 with 50 nM FGF19 for 10 min. Control cells (C) were either not stimulated or stimulated with FGF19 in absence of the nanobodies. The cell lysates were analysed by western blot with anti phospho ERK1/2 antibody. Total Erk1/2 levels are shown as loading control.
Binding validation of selected phages, recombinant nanobodies and decorated liposomes was performed on Rh4-FR4 wt and Rh4-FR4ko cells. Specificity of selected phage clones binding to FGFR4 was determined by flow cytometry in 96-well plates (Becton Dickinson). Cell surface staining of Rh4-FR4 wt or Rh4-FR4ko cells was performed on ice in PBS supplemented with 1% FBS. 80 μL phages+20 μL PBS/1% milk were incubated on 1×10⁵ cells for 1 h on ice. […] Samples were analyzed after two washes by flow cytometry on a MACSQuant® cytometer (Miltenyi) and results were analyzed with FlowJo™ software (BD Biosciences, France). Phages displaying anti-mCherry nanobodies were used as negative control²⁴ and as positive control we used an anti-FGFR4 antibody (BT53, kindly provided by J. Khan lab, NCI, Bethesda, MD). For binding test of recombinant nanobodies, cells were detached with Accutase® (Stemcell Technologies) and washed with PBS. All following steps were performed on ice: 4×10⁵ cells were incubated with nanobody concentrations of 30 μg/ml for 1 h, washed once with PBS and incubated for an additional 30 min with anti His-tag FITC labeled antibody (LS-C57341, LSBioscience, diluted 1:10). The cells were washed once more with PBS and analyzed. Targeting liposomes were added at 0.5 mM final lipid concentration to cells in 96-well plates and incubated for 2 h at 37° C. and 5% CO₂. The cells were washed twice with PBS and detached with Accutase®.
Validation of the binding of recombinant nanobodies to cell-surface expressed FGFR4 was performed with Rh4-FR4 wt and Rh4-FR4ko cells by flow cytometry.

T2 sequence (P21802 22-821 limits assumed): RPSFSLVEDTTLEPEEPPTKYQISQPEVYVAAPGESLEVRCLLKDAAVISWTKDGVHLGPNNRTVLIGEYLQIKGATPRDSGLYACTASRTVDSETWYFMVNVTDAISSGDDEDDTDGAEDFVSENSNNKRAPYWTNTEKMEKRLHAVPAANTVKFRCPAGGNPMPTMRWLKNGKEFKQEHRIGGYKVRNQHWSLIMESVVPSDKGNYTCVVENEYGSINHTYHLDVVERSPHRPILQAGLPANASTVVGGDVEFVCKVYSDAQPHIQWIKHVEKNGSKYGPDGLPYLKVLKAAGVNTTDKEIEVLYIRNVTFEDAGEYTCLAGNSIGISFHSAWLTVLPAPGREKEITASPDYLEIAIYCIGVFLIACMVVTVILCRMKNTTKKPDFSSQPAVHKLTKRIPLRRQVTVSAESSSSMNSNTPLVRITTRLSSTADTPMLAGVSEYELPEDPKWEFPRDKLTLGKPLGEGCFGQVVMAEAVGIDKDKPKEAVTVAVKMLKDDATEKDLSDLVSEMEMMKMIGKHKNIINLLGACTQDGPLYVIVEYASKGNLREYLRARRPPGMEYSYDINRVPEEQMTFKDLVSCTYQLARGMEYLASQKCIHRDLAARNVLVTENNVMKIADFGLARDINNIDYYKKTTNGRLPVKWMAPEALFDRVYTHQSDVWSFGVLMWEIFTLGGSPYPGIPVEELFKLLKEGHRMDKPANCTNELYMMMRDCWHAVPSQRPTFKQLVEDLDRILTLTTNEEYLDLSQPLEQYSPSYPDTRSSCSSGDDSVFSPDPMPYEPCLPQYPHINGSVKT

B2: B5 nanobody (anti-FGFR4 sdAb, NaLi-H1 library) (VHH)
VHH: EVQLQASGGGFVQPGGSLRLSCAASGRTSWLTTMGWFRQAPGKEREFVSAISSFSSKQGYYADSVKGRFTISRDNSKNTVYLQMNSLRAEDTATYYCAYASYPRHQGNGRWKDFVEYWGQGTQVTVSS
notes: Recombinant nanobody of about 17 kDa; also called B5 sdAb; not shown: C-terminal Myc/6xHis-tag and an additional cysteine
koff [2]: 3.75e-08 s⁻¹

B3: F8 nanobody (anti-FGFR4 sdAb, Gimli library) (VHH)
VHH: EVQLVESGGGLVQPGGSLRLSCAASGTGYALDDMGWVRQAPGKGLEWVSAISDDESMADYYADSVKGRFTISRDNSKNTVYLQMNSLRAEDTAVYYCASYKEYKYQSGHHYFAYRGQGTLVTVSS
notes: Recombinant nanobody of about 17 kDa; also called F8 sdAb; not shown: C-terminal Myc/6xHis-tag and an additional cysteine
binding result [3]: no binding (tested: 30 µg/ml) | koff [1]: 0.00557 s⁻¹

Results, then the binder that gave them:

koff [1]: 0.00245 s⁻¹
B1: A8 nanobody (anti-FGFR4 sdAb, NaLi-H1 library) (VHH)
VHH: EVQLQASGGGFVQPGGSLRLSCAASGRTYSRDTMGWFRQAPGKEREFVSAISSRHSHTTYYADSVKGRFTISRDNSKNTVYLQMNSLRAEDTATYYCAEWDVFDMHYALPPMWYWGQGTQVTVSS
notes: also called A8 sdAb; not shown: C-terminal Myc/6xHis-tag and an additional cysteine

binding result [3]: no binding (tested: 30 µg/ml) | koff [1]: 0.000992 s⁻¹
B4: B1 nanobody (anti-FGFR4 sdAb, NaLi-H1 library) (VHH)
VHH: EVQLQASGGGFVQPGGSLRLSCAASGYTSRSSAMGWFRQAPGKEREFVSAISDLTGYPYYYADSVKGRFTISRDNSKNTVYLQMNSLRAEDTATYYCAAYQDDKWTYGSQHGKYWGQGTQVTVSS
notes: also called B1 sdAb; not shown: C-terminal Myc/6xHis-tag and an additional cysteine
